The record followed here is paper PMC4797271, “The quorum-sensing regulator ComA from Bacillus subtilis activates transcription using topologically distinct DNA motifs”.

One data set concerns the target ComA;sigma factor sigmaA (Bacillus subtilis;Bacillus subtilis, UniProt P14204;P06224 1-214;1-371, |). Put plainly: EMSA; supershift, same sigmaA concentration as PDR; EMSA: 10 mM HEPES pH 7.6, 2 mM MgCl2, 0.1 mM EDTA, 200 mM KCl, 5 mM DTT, 10% glycerol; 10 ng DNA in 15 ul, 20 min, room temperature. Particulars: protein: recombinant;recombinant; tags: N-terminal His6 (from expression primer);N-terminal His6 (from expression primer); chain copies: 2;1; label: 5' biotin on strand 1; blunt. For orientation: In EMSA bound probe runs differently from free probe, usually more slowly.

Data set [1] has as its target T1, ComA;RNA polymerase alpha subunit (Bacillus subtilis;Bacillus subtilis, UniProt P14204;P20429 1-214;1-314, |).
T1 sequence 1: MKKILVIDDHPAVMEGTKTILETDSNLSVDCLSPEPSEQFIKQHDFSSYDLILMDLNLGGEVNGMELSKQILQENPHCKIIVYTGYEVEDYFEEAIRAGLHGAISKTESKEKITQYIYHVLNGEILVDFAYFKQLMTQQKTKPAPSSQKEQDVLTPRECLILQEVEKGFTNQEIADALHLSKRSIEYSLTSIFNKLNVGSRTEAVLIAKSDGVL
T1 sequence 2: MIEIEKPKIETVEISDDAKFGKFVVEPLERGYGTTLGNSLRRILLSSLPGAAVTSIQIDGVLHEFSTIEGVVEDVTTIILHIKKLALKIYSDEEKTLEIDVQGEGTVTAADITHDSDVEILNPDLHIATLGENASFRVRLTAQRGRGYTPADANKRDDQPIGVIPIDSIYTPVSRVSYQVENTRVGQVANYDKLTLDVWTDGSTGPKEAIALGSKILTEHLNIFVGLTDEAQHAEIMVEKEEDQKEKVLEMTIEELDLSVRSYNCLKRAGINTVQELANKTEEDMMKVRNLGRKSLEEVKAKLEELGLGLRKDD
Put plainly: EMSA; supershift, same alpha concentration as PDR; EMSA: 10 mM HEPES pH 7.6, 2 mM MgCl2, 0.1 mM EDTA, 200 mM KCl, 5 mM DTT, 10% glycerol; 10 ng DNA in 15 ul, 20 min, room temperature. Particulars: protein: recombinant;recombinant; tags: N-terminal His6 (from expression primer);N-terminal His6 (from expression primer); label: 5' biotin on strand 1; blunt.

The target of data set [2] is T2, ComA (Bacillus subtilis, UniProt P14204 1-214).
T2 sequence: T1 sequence 1
In words: EMSA; complex at 1.2 uM or more; affinity similar to PDR; EMSA: 10 mM HEPES pH 7.6, 2 mM MgCl2, 0.1 mM EDTA, 200 mM KCl, 5 mM DTT, 10% glycerol; 10 ng DNA in 15 ul, 20 min, room temperature. Particulars: protein: recombinant; tags: N-terminal His6 (from expression primer); chain copies: 2; label: 5' biotin on strand 1; blunt.

In data set [3] the target is T2, ComA. In words: EMSA; multiple complexes; EMSA: 10 mM HEPES pH 7.6, 2 mM MgCl2, 0.1 mM EDTA, 200 mM KCl, 5 mM DTT, 10% glycerol; 10 ng DNA in 15 ul, 20 min, room temperature. The following applies: protein: recombinant; tags: N-terminal His6 (from expression primer); chain copies: 2; label: 5' biotin on strand 1; blunt.

Chain of ComA;sigma factor sigmaA (P06224 whole entry, one chain of several): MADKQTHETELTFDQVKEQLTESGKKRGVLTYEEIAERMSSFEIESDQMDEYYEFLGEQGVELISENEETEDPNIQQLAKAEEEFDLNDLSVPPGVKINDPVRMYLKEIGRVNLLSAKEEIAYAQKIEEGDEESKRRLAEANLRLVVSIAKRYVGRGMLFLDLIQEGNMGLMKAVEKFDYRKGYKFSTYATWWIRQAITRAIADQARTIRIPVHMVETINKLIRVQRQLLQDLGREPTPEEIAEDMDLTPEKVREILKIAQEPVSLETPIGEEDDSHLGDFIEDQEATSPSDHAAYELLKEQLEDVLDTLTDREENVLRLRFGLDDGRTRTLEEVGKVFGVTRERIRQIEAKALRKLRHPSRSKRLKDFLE

B1: PIR (perfect inverted repeat) (dsDNA)
DNA 1: ATGTTTAGTGGAAATGATTGCGGCATCCCGCAAAAAATATTGCTGTAAAT
DNA 2: ATTTACAGCAATATTTTTTGCGGGATGCCGCAATCATTTCCACTAAACAT
With B1, the binding result (in the data set with ComA;sigma factor sigmaA; in data set [1]; in the data set with ComA [2]) was “binds” in each case.

B2: Ppel DR cluster (DR1-DR3) (dsDNA)
DNA 1: CGGCCTTTTGGTTTTTTTGCGGTCTTTGCGGTGGGATTTTGCAGAAT
DNA 2: ATTCTGCAAAATCCCACCGCAAAGACCGCAAAAAAACCAAAAGGCCG
For B2, in the data set with ComA [3], the binding result is reported as “binds”.
